{"source": "patent US9011842", "molecular_target": "T1, 33-mer peptide fragment of α-gliadin, LQLQPFPQPQLPYPQPQLPYPQPQLPYPQPQPF (SEQ ID NO:1)", "T1 chain": "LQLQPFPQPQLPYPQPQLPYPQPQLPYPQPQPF", "note": "Several values for one entry are separate records, joined by “and”; a condition that tells them apart may be missing. Equal values may be shown once.", "data": [{"protein": "Carboxypeptidase Y derived from Saccharomyces cerevisiae (protein) KIKDPKILGIDPNVTQYTGYLDVEDEDKHFFFWTFESRNDPAKDPVILWLNGGPGCSSLTGLFFELGPSSIGPDLKPIGNPYSWNSNATVIFLDQPVNVGFSYSGSSGVSNTVAAGKDVYNFLELFFDQFPEYVNKGQDFHIAGESYAGHYIPVFASEILSHKDRNFNLTSVLIGNGLTDPLTQYNYYEPMACGEGGEPSVLPSEECSAMEDSLERCLGLIESCYDSQSVWSCVPATIYCNNAQLAPYQRTGRNVYDIRKDCEGGNLCYPTLQDIDDYLNQDYVKEAVGAEVDHYESCNFDINRNFLFAGDWMKPYHTAVTDLLNQDLPILVYAGDKDFICNWLGNKAWTDVLPWKYDEEFASQKVRNWTASITDEVAGEVKSYKHFTYLRVFNGGHMVPFDVPENALSMVNEWIHGGFSL", "values": [{"measurement": "digestion of the 33-mer peptide (HPLC-MS), in vitro gastrointestinal model with pepsin, trypsin and chymotrypsin present", "value": "GDEP-M, CPY, and the combination of GDEP-M and CPY efficiently digested the 33-mer peptide in the artificial gastrointestinal condition"}, {"measurement": "hydrolysis of the 33-mer peptide (HPLC-MS and ELISA), pH 5.0", "value": "CPY, MX-PEP, and AN-PEP hydrolyze the 33-mer peptide. AN-PEP appears to have the strongest activity against the 33-mer peptide, followed by CPY and then MX-PEP"}, {"measurement": "hydrolysis of the 33-mer peptide (HPLC-MS), 4 hours, SIF pH 6.8", "value": "CPY efficiently hydrolyzed the 33-mer peptide and residual peptides were approximately 20 amino acids in length"}, {"measurement": "hydrolysis of the 33-mer peptide (HPLC-MS), 4 hours, buffer pH 4.0 to 7.0", "value": "CPY completely hydrolyzed the 33-mer peptide at acidic pH"}, {"measurement": "percent of the 33-mer peptide digested (ELISA), in vitro gastrointestinal model with pepsin, trypsin and chymotrypsin present", "value": "CPY alone digested about 95% of the 33-mer peptide"}]}, {"protein": "Oryzin (protein) GLTTQKSAPWGLGSISHKGQQSTDYIYDTSAGEGTYAYVVDSGVNVDHEEFEGRASKAYNAAGGQHVDSIGHGTHVSGTIAGKTYGIAKKASILSVKVFQGESSSTSVILDGFNWAANDIVSKKRTSKAAINMSLGGGYSKAFNDAVENAFEQGVLSVVAAGNENSDAGQTSPASAPDAITVAAIQKSNNRASFSNFGKVVDVFAPGQDILSAWIGSSSATNTISGTSMATPHIVGLSLYLAALENLDGPAAVTKRIKELATKDVVKDVKGSPNLLAYNGNA", "values": [{"measurement": "degradation of the 33-mer peptide (ELISA of intact 33-mer), 0.1 mg/ml enzyme, SIF pH 6.8", "value": "Oryzin alone did not degrade the 33-mer peptide"}, {"measurement": "degradation of the 33-mer peptide (ELISA), 60 min, SIF pH 6.8, lowest enzyme concentrations", "value": "Oryzin, at the lowest concentrations, did not degrade the 33-mer peptide"}, {"measurement": "percent of the 33-mer peptide degraded (ELISA), 60 min, SIF pH 6.8, 0.4 mg/ml and 0.8 mg/ml enzyme", "value": "at higher concentrations (0.4 mg/ml and 0.8 mg/ml), Oryzin degraded about 10% to about 20% of the 33-mer peptide"}]}, {"protein": "proteinase K (protein) AAQTNAPWGLARISSTSPGTSTYYYDESAGQGSCVYVIDTGIEASHPEFEGRAQMVKTYYYSSRDGNGHGTHCAGTVGSRTYGVAKKTQLFGVKVLDDNGSGQYSTIIAGMDFVASDKNNRNCPKGVVASLSLGGGYSSSVNSAAARLQSSGVMVAVAAGNNNADARNYSPASEPSVCTVGASDRYDRRSSFSNYGSVLDIFGPGTSILSTWIGGSTRSISGTSMATPHVAGLAAYLMTLGKTTAASACRYIADTANKGDLSNIPFGTVNLLAYNNYQA", "values": [{"measurement": "hydrolysis of the 33-mer peptide (HPLC-MS), 15 hours, SIF pH 6.8", "value": "at intestinal conditions (pH≈6.8), proteinase K did not hydrolyze most of the 33-mer peptide"}]}, {"protein": "Neutral protease II (protein) TEVTDCKGDAESSLTTALSNAAKLANQAAEAAESGDESKFEEYFKTTDQQTRTTVAERLRAVAKEAGSTSGGSTTYHCNDPYGYCEPNVLAYTLPSKNEIANCDIYYSELPPLAQKCHAQDQATTTLHEFTHAPGVYQPGTEDLGYGYDAATQLSAQDALNNADSYALYANAIELKC", "values": [{"measurement": "degradation of the 33-mer peptide (ELISA of intact 33-mer), 0.1 mg/ml enzyme, SIF pH 6.8", "value": "NP I and NP II each exhibited a limited ability to degrade the 33-mer peptide"}, {"measurement": "percent of the 33-mer peptide degraded (ELISA), 60 min, SIF pH 6.8", "value": "NP II alone degraded about 20% to about 30% of the 33-mer peptide"}]}, {"protein": "papain (protein) IPEYVDWRQKGAVTPVKNQGSCGSCWAFSAVVTIEGIIKIRTGNLNEYSEQELLDCDRRSYGCNGGYPWSALQLVAQYGIHYRNTYPYEGVQRYCRSREKGPYAAKTDGVRQVQPYNEGALLYSIANQPVSVVLEAAGKDFQLYRGGIFVGPCGNKVDHAVAAVGYGPNYILIKNSWGTGWGENGYIRIKRGTGNSYGVCGLYTSSFYPVKN", "values": [{"measurement": "hydrolysis of the 33-mer peptide (HPLC-MS), 1 hour, pH 4.5", "value": "Papain completely hydrolyzed the 33-mer peptide at a pH of about 4.5"}]}]}
